Residue numbers refer to the chain shown, from its start. Names may count otherwise. Blank lines part the entries; values can stand above or below the binder they belong to.
Target: T1, ch‐TOG (CKAP5) TOG domain 1 (TOG D1, residues 1–250) (UniProt Q14008 1-250, AlexaFluor 555 or 405 (NHS ester) on ~1% of the protein in the droplet assays; 2H 15N labeled for the PRE experiments)
T1 construct: microtubule-associated protein ch-TOG (CKAP5), TOG domain 1, residues 1–250; also called TOG domain 1 (D1); source: E. coli BL21 Star (DE3), purified (HisTrap, Superdex 75, TEV cleavage, second HisTrap)
Assay: NMR paramagnetic relaxation enhancement (PRE); TROSY-based 1HN R2 at 850 MHz, 25°C; NMR-invisible hnRNPA2 LC with a paramagnetic label at S285C or S329C mixed with 2H 15N TOG D1; paramagnetic against diamagnetic samples
Settings: both partners purified

T1 sequence (Q14008 1-250): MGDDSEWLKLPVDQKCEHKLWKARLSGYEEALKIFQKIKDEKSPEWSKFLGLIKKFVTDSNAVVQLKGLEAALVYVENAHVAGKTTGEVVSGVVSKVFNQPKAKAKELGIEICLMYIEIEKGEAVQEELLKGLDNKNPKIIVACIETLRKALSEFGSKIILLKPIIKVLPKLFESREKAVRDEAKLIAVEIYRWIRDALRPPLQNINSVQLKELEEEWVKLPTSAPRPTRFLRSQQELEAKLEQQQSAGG

Kd: > 100 µM
B1: hnRNPA2 LC S285C with a paramagnetic label (MTSL) at the engineered cysteine (domain or fragment, human, UniProt P22626-2 190-341, looked up)
chain: GRGGNFGFGDSRGGGGNFGPGPGSNFRGGSDGYGSGRGFGDGYNGYGGGPGGGNFGGSPGYGGGRGGYGGGGPGYGNQGGGYGGGYDNYGGGNYGCGNYNDFGNYNQQPSNYGPMKSGNFGGSRNMGGPYGGGNYGPGGSGGSGGYGGRSRY
modifications: small (~120 Da) paramagnetic label (MTSL) at the engineered cysteine 285
notes: hnRNPA2 low complexity domain, human, residues 190–341; Purified and labeled as described in Ryan et al, 2018; source: E. coli BL21 Star (DE3), purified from inclusion bodies (His-tag purification), MTSL-labeled

Kd: > 100 µM
B2: hnRNPA2 LC S329C with a paramagnetic label (MTSL) at the engineered cysteine (domain or fragment, human, UniProt P22626-2 190-341, looked up)
chain: B1 chain with C96S, S140C
modifications: small (~120 Da) paramagnetic label (MTSL) at the engineered cysteine 329
notes: as for B1

— publication PMC7849316, “Tyrosine phosphorylation regulates hnRNPA2 granule protein partitioning and reduces neurodegeneration” (The EMBO Journal, 2020)
